Laboratory results from the supplement of paper PMC9170038.

System: MS2 coat protein
Experiment: apparent KD of MS2 coat protein; designed switch direction (-1 OFF switch, 1 ON switch): 1; higher = weaker reporter binding
Outline: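 An oligonucleotide input, 200 uM small-molecule ligand, or no input was present during titration of SNAP-549-labelled MS2 coat protein, which was doubled from 0.7 or 1.5 nM to 3 µM. Designed RNA switches had been transcribed on Illumina chips by stalled E. coli RNA polymerase. Apparent KD per design is the median over clusters of curves fitted to normalised cluster fluorescence.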

[1] = input ligand: microRNA oligo, concentration not stated
[2] = Eterna round: R95, input ligand: FMN 200 uM
[3] = Eterna round: R95, input ligand: microRNA oligo, concentration not stated
[4] = Eterna round: R95, input ligand: none

| Sequence | apparent KD of MS2 coat protein (input ligand: FMN 200 uM) | apparent KD of MS2 coat protein [1] | apparent KD of MS2 coat protein (input ligand: none) | apparent KD of MS2 coat protein [2] | apparent KD of MS2 coat protein [3] | apparent KD of MS2 coat protein [4] |
| --- | --- | --- | --- | --- | --- | --- |
| GAGUGACGAUUAGGAUAUACAGUGAUAAUGAUAGUAGAAGGAAUUGACAUGAGGAUCACCCAUGUAGGACUAAUCCAGAGAGAG [Parity 29 - Jieux - Same State NG 1] (Eterna round: R96, puzzle: Same State NG 1) | 0.0865 µM | 0.0399 µM | 0.0578 µM |  |  |  |
| UGUUGUAUUACAGGAUAUCUAUUGAUUUUAUUUAGAGAAGGGUAUUCACAUGAGGAUCACCCAUGUAUAUACGAGGAAGUUGUG [JMF's solution 71] (Eterna round: R96, puzzle: Same State NG 1) |  | 0.0415 µM |  |  |  |  |
| GUGCUCGUGUGAGGAUAUGCUUCCGUUUCGGCUGCAGAAGGUACUAUUAUACAUGAGGAUCACCCAUGUCUCUUUUGUUCGGUG [salish99_SSNG1_r04_911] (Eterna round: R96, puzzle: Same State NG 1) | 0.0669 µM | 0.0382 µM | 0.0588 µM |  |  |  |
| UAUGACUUACAAGGAUAUUAAUGACAUGAGGAUCACCCAUGUGGCUGUGUAUGUUAGAUAAGCAUUAAGAAGGUGUGCGAGUCU [JR_SSNG2_Sub097] (Eterna round: R96, puzzle: Same State NG 2) | 0.0307 µM | 0.0232 µM | 0.0254 µM |  |  |  |
| GUAGCAUACCGAGGAUAUUCAUAUUAAAACAUGAGGAUCACCCAUGUUUAGGCCAAAAGGCCUUGGGAGAAGGCGGAAUGCUAC [Xeonanis - 20 Mod4] (Eterna round: R96, puzzle: Same State NG 2) | 0.0192 µM | 0.0179 µM | 0.0251 µM |  |  |  |
| UGCCUGAGUCGAGGAUAUUAUGGAUCAAUUAAUACAUGAGGAUCACCCAUGUAAUUAAUUUAACAUGAGAAGGUGACUCAGGCA [SSNG2/10-B2] (Eterna round: R96, puzzle: Same State NG 2) | 0.0149 µM | 0.0122 µM | 0.00999 µM |  |  |  |
| ACCCAAAGUAUAUGGGAACGAGCUUUUUAACAUGAGGAUCACCCAUGUACUCGUCUUAUAAGCAGUCGAAAGACUGC [Sensor 100 - 3] (puzzle: Sensor for hsa-mir-208a) |  |  |  | 0.359 µM | 0.0192 µM | 0.39 µM |
| GCUCGGACGAUGACCCACAUGAGGAUCACCCAUGUGCUUGGGCAGGAUAUCUAGAUUAAGGAUGUAGAGAAGGGUCGACCGAGC [SameState NG3 #29] (Eterna round: R96, puzzle: Same State NG 3) | 0.345 µM | 0.0903 µM | 0.211 µM |  |  |  |
| GCGCAGCCGGGUGAGGAUAUCGGUGGUAAAACAUGAGGAUCACCCAUGUCCGAAGCUCGGACUUCCGAGAAGGCGCCCAGCUGCA [Erisin] (puzzle: Same State 2) |  |  |  |  | 0.0612 µM |  |
| ACAUAGGUUUCAGGAUAUGGGUAAAUUCCCUACAUGAGGAUCACCCAUGUCCGUAGGGAUAACAUCCAGAAGGGAAGCCACAUA [MOD3 Eternabot Solution 1 (Score 87.5)] (Eterna round: R96, puzzle: Same State NG 2) | 0.175 µM | 0.144 µM | 0.221 µM |  |  |  |
| GUGGUCAGACAUGAGGAUCACCCAUGUGGAAUAAAUAACGGACAGGAUAUGCAAUAUAGGAUAUAGUAGAAGGGUUGAUUGGUG (Eterna round: R96, puzzle: Same State NG 3) |  | 0.0493 µM |  |  |  |  |
| UGAAUAGUUACAGGAUAUGAGCCGUAAAUUGGGUCAGAAGGGUGGGUGUUUUGCGCUGUGUGCUACAUGAGGAUCACCCAUGUU [SameState NG1 #33] (Eterna round: R96, puzzle: Same State NG 1) | 0.52 µM | 0.172 µM | 0.24 µM |  |  |  |
| UUGCGCUGUCGAGAGGAUAUGCGGUGUUGGACAUGAGGAUCACCCAUGUUUGCGAUAGCUUUACGGUAGAAGGCUCUUCAGCUGC [salish99_ss2_r3_099] (puzzle: Same State 2) |  |  |  |  | 0.0458 µM |  |
| AUUGCUAUCACAGGAUAUCAUGCGGAAAUCGCGUGAGAAGGGUGGACUCUGUCAUUCACGGAGGACAUGAGGAUCACCCAUGUC [SS NG10LRO17] (Eterna round: R96, puzzle: Same State NG 1) | 0.612 µM | 0.0184 µM | 0.0363 µM |  |  |  |
| GCUAGGAUAUGCAGAGGAUCACCCUGUAGAAGGAGCAUUAGCUAGGAUAUGCAGAGGAUCACCCUGUAGAAGGAGCACUACUCU [pwkr ssNG3 DX 2xF5 +2xFMN.1] (Eterna round: R96, puzzle: Same State NG 3) | 0.445 µM | 0.205 µM | 0.248 µM |  |  |  |
| CGUCGCUGUCGAGAGGAUAUGCGGUGGUGGACAUGAGGAUCACCCAUGUUAGCGAUAGCAUCACGGUAGAAGGCUCUUACGACUG [Soteed Omei mod 25] (puzzle: Same State 2) |  |  |  |  | 0.0181 µM |  |

| Sequence | apparent KD of MS2 coat protein (input ligand: FMN 200 uM) | apparent KD of MS2 coat protein [1] | apparent KD of MS2 coat protein (input ligand: none) | apparent KD of MS2 coat protein [2] | apparent KD of MS2 coat protein [3] | apparent KD of MS2 coat protein [4] |
| --- | --- | --- | --- | --- | --- | --- |
| GUGGUCAGACAUGAGGAUCACCCAUGUGGAAUAAAUAACAGACAGGAUAUUUAAUAUAGGAUAUAGAAGAAGGGUCGAUUGGUG (Eterna round: R96, puzzle: Same State NG 3) | 0.117 µM | 0.0875 µM | 0.103 µM |  |  |  |
| UGGUACAUGGGAGGAUAUCUCAUGGAGACAUGAGGAUCACCCAUGUAGAUCGACGGUAACGUCGGAGAGAAGGCCCAUGUACCU [MOD JL SSNG1 3.70] (Eterna round: R96, puzzle: Same State NG 2) | 0.0174 µM | 0.0326 µM | 0.05 µM |  |  |  |
| UCUUGGUUUUUGCUCGUUUUUUGUGUUGAACAUGAGGAUCACCCAUGUAUUGUACGGUCCAGUUUAAUAGUGGUCCG [JMF 31] (puzzle: Sensor for hsa-mir-208a) |  |  |  | 0.0258 µM | 0.0134 µM | 0.0238 µM |
| GGAGCCGGCACCGAGGAUAUUCAUAUUAAAACAUGAGGAUCACCCAUGUAGGCCAGAAGGCUUUGGGAGAAGGCGGAUCGGCUCG [Xeonanis - 3] (puzzle: Same State 2) |  |  |  | 0.0253 µM | 0.31 µM | 0.546 µM |
| ACAUGAGACAUAGGAUAUGUUGUACCUACAUGUGACAUGAGGAUCACCCAUGUGGUAAGUAUGAGACAGAAGGAUGAGAUAUGU [Equivalence 30 - Jieux - Same State NG 2] (Eterna round: R96, puzzle: Same State NG 2) | 0.0275 µM | 0.0434 µM | 0.073 µM |  |  |  |
| AGAGAACAUGAGGAUCACCCAUGUAGGAUGGGCAUAGGAUAUAGAAGGAUGAGGGAGAAACUAGAAGGAUGAUGGA [JR_SS1_Sub077] (puzzle: Same State 1) |  |  |  | 0.124 µM | 0.152 µM | 0.278 µM |
| AGUCCAGCCUGAGCUGGACAGAAGCAUGUACAUGAGGAUCACCCAUGUCAUGUACAAGCUUUUUGCUCGUCUUAAUA [Zipper 49 - 3] (puzzle: Sensor for hsa-mir-208a) |  |  |  | 0.459 µM | 0.0162 µM | 0.641 µM |
| UUAAUAAUGAUAGGAUAUACAUGAGGAAUUCUCGUAGAAGGAUCAUGACAUGAGGAUCACCCAUGUAACGCUCGGAAGAGCGUA [Mat - Same State NG 1 - JL mod - D38] (Eterna round: R96, puzzle: Same State NG 1) | 0.846 µM | 0.236 µM | 0.909 µM |  |  |  |
| AGUGAACAUGAGGAUCACCCAUGUGAGAGGGAUGUAGGAUAUGUAAGGAAGUAAGAUGGAACAGAAGGACAAAGUG [JR_SS!_Sub067] (puzzle: Same State 1) |  |  |  | 0.0386 µM | 0.0461 µM | 0.0504 µM |
| AACAAUCUAUCUGAGGAUAUCAUGAAAUAAACAUGAGGAUCACCCAUGUGCAGGAAAACUGCAUAUGAGAAGGCAUAUAGAUUGA [salish99_ss2_r3_052] (puzzle: Same State 2) |  |  |  | 0.0637 µM | 0.465 µM | 1.56 µM |
| CCGAUUUAUGGAGGAUAUGGAGCCUUAUUGGCUCCAGAAGGUCAAUAAACAUGAGGAUCACCCAUGUCGGCGGUCAAUAGACCG [Eli NG1ss - 71] (Eterna round: R96, puzzle: Same State NG 1) | 0.103 µM | 0.0844 µM | 0.18 µM |  |  |  |
| AUAACACUGGCAGGAUAUGGGAAAGGAAGUGUACCAGAAGGGCCAGAACGGCGAUGGACAUGAGGAUCACCCAUGUCUUAGCCU [PowerStrip SSNG 1.4] (Eterna round: R96, puzzle: Same State NG 1) | 0.0127 µM | 0.0114 µM | 0.0139 µM |  |  |  |
| GCGAAAGCCGUAGGAUAUGUAGGAUAUGGCGAGAGCUAAGCUUGGAAGUCACUUCAGCCAGAAGGACAGAAGGACGCCGAAAGG [pwkr ssNG2 2FMN + F9.15] (Eterna round: R96, puzzle: Same State NG 2) | 1.41 µM | 0.387 µM | 0.0462 µM |  |  |  |
| AACAUGAGGAUCACCCAUGUGGAAUACUGAAGCAGCUCAGGGAAGGAUAUGGUUGACACCCUCGACCAGAAGGUCCAAAUUAAA [Onarar] (Eterna round: R96, puzzle: Same State NG 3) | 0.0633 µM | 0.0982 µM | 0.121 µM |  |  |  |
| AUAAGUUCGAUGCUCGUCUCUCCGUACUAACAUGAGGAUCACCCAUGUGAUCGGGCAGUAGCCCGAUCAGUAUGGCC [Bizain] (puzzle: Sensor for hsa-mir-208a) |  |  |  | 0.0907 µM | 0.0683 µM | 0.114 µM |
